{
  "source": "patent US20090286723A1",
  "key": {"[1]": {"target": "amylin receptors (rat nucleus accumbens membranes) (rat)", "experiment": "125I-amylin displacement, rat nucleus accumbens membranes"}, "[2]": {"target": "T1, CGRP receptors (SK-N-MC cell membranes), Q16602", "T1 chain 1": "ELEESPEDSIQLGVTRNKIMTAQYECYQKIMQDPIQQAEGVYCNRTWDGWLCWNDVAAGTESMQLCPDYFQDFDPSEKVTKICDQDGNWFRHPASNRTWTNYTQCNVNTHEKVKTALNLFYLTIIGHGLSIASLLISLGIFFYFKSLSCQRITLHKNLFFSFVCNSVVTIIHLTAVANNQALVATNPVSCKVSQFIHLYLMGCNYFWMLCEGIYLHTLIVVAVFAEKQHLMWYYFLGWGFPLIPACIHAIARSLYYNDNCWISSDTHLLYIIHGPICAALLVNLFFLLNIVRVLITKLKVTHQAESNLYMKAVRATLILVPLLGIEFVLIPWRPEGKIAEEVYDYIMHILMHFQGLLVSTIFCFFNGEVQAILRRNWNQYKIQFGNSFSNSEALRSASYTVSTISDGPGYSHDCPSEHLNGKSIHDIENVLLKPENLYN", "T1 chain 2": "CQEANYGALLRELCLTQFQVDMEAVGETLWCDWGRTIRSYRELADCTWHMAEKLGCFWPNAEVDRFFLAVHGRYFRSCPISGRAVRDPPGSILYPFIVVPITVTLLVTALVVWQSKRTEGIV", "experiment": "125I-hCGRP displacement, SK-N-MC membranes"}, "[3]": {"target": "GLP-1/GIP/CT (receptors read by the GLP-1/GIP/CT cyclase assay)", "experiment": "cell-based or functional assay"}, "calcitonin receptor": {"target": "calcitonin receptor", "sequence (P30988 whole entry)": "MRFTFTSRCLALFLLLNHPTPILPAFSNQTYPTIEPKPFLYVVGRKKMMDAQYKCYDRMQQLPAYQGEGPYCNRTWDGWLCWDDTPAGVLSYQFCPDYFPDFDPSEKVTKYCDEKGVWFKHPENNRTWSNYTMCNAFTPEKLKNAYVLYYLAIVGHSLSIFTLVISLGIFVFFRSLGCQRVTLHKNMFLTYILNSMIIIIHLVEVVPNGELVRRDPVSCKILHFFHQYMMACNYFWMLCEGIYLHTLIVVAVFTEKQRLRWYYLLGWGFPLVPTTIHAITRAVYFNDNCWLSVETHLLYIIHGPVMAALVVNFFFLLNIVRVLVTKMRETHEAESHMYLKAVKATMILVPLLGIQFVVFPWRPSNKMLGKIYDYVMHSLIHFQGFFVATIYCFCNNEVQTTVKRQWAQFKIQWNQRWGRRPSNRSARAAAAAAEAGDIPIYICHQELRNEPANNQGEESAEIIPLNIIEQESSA", "experiment": "cell-based or functional assay"}, "[4]": {"target": "T2, neuropeptide Y2 receptor (SK-N-BE cell membranes), P49146", "T2 chain": "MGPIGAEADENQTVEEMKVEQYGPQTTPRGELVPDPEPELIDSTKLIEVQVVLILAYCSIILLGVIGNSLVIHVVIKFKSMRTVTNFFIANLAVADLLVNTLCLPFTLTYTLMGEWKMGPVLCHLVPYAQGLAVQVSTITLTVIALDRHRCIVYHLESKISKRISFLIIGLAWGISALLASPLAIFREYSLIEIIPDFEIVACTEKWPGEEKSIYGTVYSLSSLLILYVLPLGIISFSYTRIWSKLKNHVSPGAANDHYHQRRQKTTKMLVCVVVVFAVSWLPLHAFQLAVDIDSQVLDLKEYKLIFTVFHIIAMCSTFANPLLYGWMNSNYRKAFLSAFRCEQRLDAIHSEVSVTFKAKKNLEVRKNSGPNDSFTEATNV", "experiment": "[125I]-human PYY displacement, SK-N-BE membranes"}, "[5]": {"target": "T3, amylin receptors (rat nucleus accumbens membranes) (rat)", "T3 chain 1": "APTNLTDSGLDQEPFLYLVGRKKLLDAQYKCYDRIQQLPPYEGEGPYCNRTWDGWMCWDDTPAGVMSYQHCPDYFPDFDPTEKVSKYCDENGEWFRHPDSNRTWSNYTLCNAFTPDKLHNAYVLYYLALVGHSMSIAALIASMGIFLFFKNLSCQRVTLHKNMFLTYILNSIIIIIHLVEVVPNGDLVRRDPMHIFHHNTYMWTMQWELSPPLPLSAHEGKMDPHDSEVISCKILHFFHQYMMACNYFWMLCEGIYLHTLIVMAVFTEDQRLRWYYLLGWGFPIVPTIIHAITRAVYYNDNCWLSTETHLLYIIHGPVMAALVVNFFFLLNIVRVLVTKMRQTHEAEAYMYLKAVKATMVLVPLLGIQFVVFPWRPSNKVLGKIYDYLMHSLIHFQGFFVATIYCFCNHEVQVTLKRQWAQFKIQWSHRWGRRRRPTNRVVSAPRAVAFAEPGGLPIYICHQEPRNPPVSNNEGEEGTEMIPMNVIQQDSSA", "T3 chain 2": "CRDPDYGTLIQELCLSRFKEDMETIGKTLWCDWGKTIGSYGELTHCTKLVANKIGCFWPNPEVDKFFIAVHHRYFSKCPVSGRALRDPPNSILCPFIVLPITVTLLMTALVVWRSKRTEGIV", "experiment": "amylin receptor binding assay"}},
  "data": [
    {"binder": "KCNTATCATQRLANFLVRSSNNLGPVLPPTNVGSNTY (modifications not checked)", "note": "[Rat amylin]", "values": [
      {"measurement": "Receptor Binding", "setting": "[1]", "result": 0.05},
      {"measurement": "Receptor Binding", "setting": "[2]", "result": 21},
      {"measurement": "Receptor Activation: GLP-1/GIP/CT cyclase", "setting": "[3]", "result": 5},
      {"measurement": "Receptor Activation: CT cyclase", "setting": "calcitonin receptor", "result": 326}
    ]},
    {"binder": "[#Suc-(bAla)-PYY-(3-36), amide] [#NH-Des-Lys1-Rat Amylin, amide] (modifications not checked) chain 1: not shown chain 2: CNTATCATQRLANFLVRSSNNLGPVLPPTNVGSNTY", "values": [
      {"measurement": "Receptor Binding", "setting": "[4]", "result": 0.39},
      {"measurement": "Receptor Activation: CT cyclase", "setting": "calcitonin receptor", "result": 645}
    ]},
    {"binder": "DFMGWMDFGKRKCNTATCATQRLANELVRLQTYPRTNVGSNTY (modifications not checked)", "note": "[27(p-CH2SO3)-PheCCK8(26-33),G,K,R,15Glu,hAmy(1-17),18Arg,Sct(18-26),hAmy(32-37)]", "values": [
      {"measurement": "Receptor Binding", "setting": "[2]", "result": 4.4},
      {"measurement": "Receptor Activation: GLP-1/GIP/CT cyclase", "setting": "[3]", "result": 1000}
    ]},
    {"binder": "DFMGWMDFGKRKCNTATCATQRLANELVRLQTYPRTNVGSNTY (modifications not checked)", "note": "[DF(P-CH2SO3)… …]", "values": [
      {"measurement": "IC50", "setting": "[5]", "result": 0.083, "unit": "nM"}
    ]},
    {"binder": "[#Mal-Bu-(bAla)-PYY-(3-36), amide] [#S-Prp-(bAla)-Compound 10, amide] (modifications not checked) chain 1: not shown chain 2: […]", "values": [
      {"measurement": "Receptor Binding", "setting": "[4]", "result": 0.2}
    ]}
  ]
}
